Target: FtsZ-F268C labeled with fluorescein 5-maleimide (donor) or tetramethylrhodamine 5-maleimide (acceptor) (E. coli) (UniProt P0A9A6)

FRET assay of subunit exchange of FtsZ protofilaments at steady state with ZipA, pH 6.5: reaction time τ (13.1 s for FtsZ alone): 25.2 s
Substance: N-terminally truncated ZipA (26-328) from E. coli (from UniProt P77173 26-328) (domain or fragment)

Source: publication PMC5473857
